These results are taken from the supplement of paper PMC9170038.

The data set has as its system MS2 coat protein. Description: apparent KD of MS2 coat protein; designed switch direction (-1 OFF switch, 1 ON switch): -1; higher = weaker reporter binding. The method in brief: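 For each design, the apparent KD is the median over clusters of curves fitted to normalised cluster fluorescence. Clusters held RNA switches with common flanks, transcribed on Illumina chips by stalled E. coli RNA polymerase. These were titrated with SNAP-549-labelled MS2 coat protein, doubling from 0.7 or 1.5 nM to 3 µM, without input, with 200 uM small-molecule ligand, or with an oligonucleotide input.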

[1] abbreviates: Eterna round: R95, input ligand: FMN 200 uM.
Setting [2] is: Eterna round: R95, input ligand: microRNA oligo, concentration not stated.
Setting [3] is: Eterna round: R95, input ligand: none.
Where [4] appears, read: input ligand: microRNA oligo, concentration not stated.

For “CCAUGUUAGCAGGAUAUGCAAUAAAUCUUUUAUGCAGAAGGGCUUACAUGAGGAUCACCCAUGUAUUAAGUCAA [JR_E6_Sub078] (puzzle: Exclusion 6)”, the “apparent KD of MS2 coat protein” value by setting is: under setting [1], 0.118 µM; under setting [2], 0.036 µM; under setting [3], 0.0499 µM.
Consider “CCCACGUCAGGAUAUCUAAAGGUCCGAAAUAACGGGACUGCAGAGAAGGGACAUGAGGAUCACCCAUGUCCUCG [EX4 C.21] (Eterna round: R97, puzzle: Exclusion 4)”, for which the “apparent KD of MS2 coat protein” value is, setting by setting: (input ligand: FMN 200 uM) 0.027 µM; (input ligand: none) 0.018 µM.
Regarding “CCCAGGGCAGGAUAUAGAGGGCUAAACAUGAGGAUCACCCAUGUGACCUCGGAACAGUUGCUAGAAGGGCCAGAUU [Maedonxe] (puzzle: Exclusion 5)”, the “apparent KD of MS2 coat protein” value is, setting by setting: under setting [1], 0.0298 µM; under setting [2], 0.0177 µM; under setting [3], 0.022 µM.
With “CCCAGUUAGGAAGGAUAUUGUACAUGAGGAUCACCCAUGUAAUAAAUGAGGAUCUCGGAUGUCUACAAGAAGGUCCGGAUAGGC [Ostracism 11 - Jieux - Exclusion NG 2] (Eterna round: R96, puzzle: Exclusion NG 2)”, the “apparent KD of MS2 coat protein” value (input ligand: FMN 200 uM) was 0.0659 µM, the “apparent KD of MS2 coat protein” value under setting [4] was found to be 0.0343 µM and the “apparent KD of MS2 coat protein” value (input ligand: none) stood at 0.0445 µM.
Take “CCCAGUUAUGAAGGAUAUUGUACAUGAGGAUCACCCAUGUAAUAAAUGAGGAUUUCGGGUGUCUACAAGAAGGUCAGGAUAGGC [Ostracism 14 - Jieux - Exclusion NG 2] (Eterna round: R96, puzzle: Exclusion NG 2)”: the “apparent KD of MS2 coat protein” value by setting is: (input ligand: FMN 200 uM) 0.0828 µM; under setting [4], 0.0436 µM; (input ligand: none) 0.0606 µM.
As to “CCCGUGUGAGGAUAUACUCUAAGCAAUGUCAGUUGCUACAGGUAGAAGGCACAUGAGGAUCACCCAUGUCCCGG [EX4 C.24] (Eterna round: R97, puzzle: Exclusion 4)”, the “apparent KD of MS2 coat protein” value (input ligand: FMN 200 uM) was 0.13 µM and the “apparent KD of MS2 coat protein” value (input ligand: none) was 0.241 µM.
On the same counts, the results for “CCCUCACAUGAGGAUCACCCAUGUCAGGAUAUAGUGCGAUUGUCGAUAUGAAAUUGCAUUAGAAGGGAUUAGGC [Eternabot (L1) Solution 67] (Eterna round: R97, puzzle: Exclusion 1)” are 0.0248 µM and 0.0175 µM.
As to “CCCUCACAUGAGGAUCACCCAUGUCAGGAUAUUCAGGUCACGCAAAAGCGGUUCCAAAGGAGAAGGGACAUCAA [Cequusso] (puzzle: Exclusion 1)”, the “apparent KD of MS2 coat protein” value under setting [1] is 0.0438 µM, the “apparent KD of MS2 coat protein” value under setting [2] is 0.0242 µM and the “apparent KD of MS2 coat protein” value under setting [3] came to 0.0309 µM.
For “CCCUCACUUGAGGAUCACCCAAGUCAGGAUAUCUCACCCGUCCUGCAAGACGGGUCACAGAGAAGGGACUAAAA [Araatra] (Eterna round: R97, puzzle: Exclusion 1)”, the “apparent KD of MS2 coat protein” value was determined as 0.069 µM (input ligand: FMN 200 uM) and 0.0219 µM (input ligand: none).
For the sequence “CCCUCGCGAGGAUAUGCAUCCUCCCUCAUUUCUUUCACUACACAUGAGGAUCACCCAUGUAGAAGGCGCUCUCC [Nina] (puzzle: Exclusion 2)”, under setting [2], the “apparent KD of MS2 coat protein” value came out at 0.0412 µM.
Turning to “CCGAAGGCAGGAUAUACAGGACAGACCCAUCAGAGCAGACUACAUGAGGAUCACCCAUGUAGAAGGGCCUUCAA [Eternabot (Original) Solution 26] (Eterna round: R97, puzzle: Exclusion 2)”, the “apparent KD of MS2 coat protein” value (input ligand: FMN 200 uM) was found to be 0.154 µM and the “apparent KD of MS2 coat protein” value (input ligand: none) was determined as 0.0187 µM.
For the sequence “CCGAAUAUGCAGGAUAUCGUAUCGGAAACGAUACGAGAAGGGCAAACAUGAGGAUCACCCAUGUUCCUUAACGG [Fiskers Ex 6 - 14] (puzzle: Exclusion 6)”, the “apparent KD of MS2 coat protein” value under setting [2] came out at 0.0158 µM.
“CCGAAUAUGUAGGAUAUCGUAUCGGAAACGAUACGAGAAGGACAAACAUGAGGAUCACCCAUGUUCCUUAACGG [Fiskers Ex 6 - 12] (puzzle: Exclusion 6)”: the “apparent KD of MS2 coat protein” value under setting [1] was found to be 0.0185 µM, the “apparent KD of MS2 coat protein” value under setting [2] turned out to be 0.0156 µM and the “apparent KD of MS2 coat protein” value under setting [3] was 0.015 µM.
As to “CCGCAAAUUGAGGAUAUCGUAUCGGAUACGAUACGAGAAGGCGAAACAUGAGGAUCACCCAUGUGUCCUAGCGG [Fiskers Ex 6 - 33] (puzzle: Exclusion 6)”, the “apparent KD of MS2 coat protein” value reads like this: under setting [1], 0.0182 µM; under setting [2], 0.012 µM; under setting [3], 0.0144 µM.
For “CCGCAGCAAGGAUAUACUUGCGGUGGUGAACGAGGGCUUAUACUUGAGGAUCACCCAAGUAGAAGGUGCAAAAC [Mamaed] (Eterna round: R97, puzzle: Exclusion 2)”, the “apparent KD of MS2 coat protein” value (input ligand: FMN 200 uM) was 0.0339 µM and the “apparent KD of MS2 coat protein” value (input ligand: none) amounted to 0.0224 µM.
Consider “CCGCUGUGAGGAUAUUAGUAGUAGUCAGAAAAGACUAUUACUGAGAAGGCACAUGAGGAUCACCCAUGUGGCGG [Mat - Exclusion 4 - Eli Mod - D47] (Eterna round: R97, puzzle: Exclusion 4)”, for which the “apparent KD of MS2 coat protein” value is, setting by setting: (input ligand: FMN 200 uM) 0.0314 µM; (input ligand: none) 0.0215 µM.
For the sequence “CCGGAAAAGGAGGAUAUAGGAGUCGAUAGACACCUAGAAGGCCUGACAUGAGGAUCACCCAUGUGUCCUACCGG [Fiskers Ex 6 - 92] (puzzle: Exclusion 6)”, the “apparent KD of MS2 coat protein” value under setting [1] stood at 0.0383 µM, the “apparent KD of MS2 coat protein” value under setting [2] came out at 0.0179 µM and the “apparent KD of MS2 coat protein” value under setting [3] was determined as 0.0168 µM.
On to “CCGGAAAUGCAGGAUAUCGUAUCGGAAACGAUACGAGAAGGGUAUACAUGAGGAUCACCCAUGUGUCCUACCGG [Fiskers Ex 6 - 21] (puzzle: Exclusion 6)”, for which, under setting [2], the “apparent KD of MS2 coat protein” value amounted to 0.0206 µM.
As for “CCGGAACAUGAGGAUCACCCAUGUCAGGAUAUCUCAAAAUCGUCGAUAGACGAUAACAAGAGAAGGGACACCGG [Mat - Exclusion 1 - Eli Mod - D29] (Eterna round: R97, puzzle: Exclusion 1)”, the “apparent KD of MS2 coat protein” value (input ligand: FMN 200 uM) worked out at 0.0234 µM and the “apparent KD of MS2 coat protein” value (input ligand: none) came out at 0.0208 µM.
Turning to “CCGGAACAUGAGGAUCACCCAUGUGAGGAUAUCGUACGUUCGUCGAAAGACGAUCGUACGAGAAGGCACGCCGG [Eli x1 4.33] (Eterna round: R97, puzzle: Exclusion 1)”, the “apparent KD of MS2 coat protein” value reads like this: (input ligand: FMN 200 uM) 0.0172 µM; (input ligand: none) 0.0146 µM.
As to “CCGGAUAUGCAGGAUAUCGUAUCGGAUACGAUACGAGAAGGGUAUACAUGAGGAUCACCCAUGUGCCUUACCGG [Mat - Exclusion 6 - Eli Mod - D83] (puzzle: Exclusion 6)”, under setting [2], the “apparent KD of MS2 coat protein” value was 0.018 µM.
In the case of “CCGGCGUGGUGCGGUUGUCGUUCGACAUGAGGAUCACCCAUGUAGGAUAUGCGCGUGGUCGCGCCGCAGAAGGGCAUCGUUUGG [Random, 15% A] (Eterna round: R96, puzzle: Exclusion NG 3)”, the “apparent KD of MS2 coat protein” value runs as follows: (input ligand: FMN 200 uM) 0.0107 µM; under setting [4], 0.0107 µM; (input ligand: none) 0.0145 µM.
For the sequence “CCGGCUGCUGUGAGGAUAUGCCUGUGGGUGCGUGGGCAGAAGGCACAUGAGGAUCACCCAUGUCCUGCGGUCCC [salish99_bmx4_r4_114] (Eterna round: R97, puzzle: Brourd's mod of Exclusion 4)”, the “apparent KD of MS2 coat protein” value by setting is: (input ligand: FMN 200 uM) 0.021 µM; (input ligand: none) 0.0266 µM.
For the sequence “CCGUACGGAGGAUAUACAUGAGGAUCACCCAUGUGUCCGCGCGUGGGAACACGUAAUAGUAGAAGGCCGUCCGG [jl-ex3-4.78 Brourd automod] (Eterna round: R97, puzzle: Exclusion 3)”, the “apparent KD of MS2 coat protein” value runs as follows: (input ligand: FMN 200 uM) 0.491 µM; (input ligand: none) 0.0594 µM.
With “CCUAAACAUGAGGAUCACCCAUGUGAGGAUAUGAUGCGAAUAAAGAAAGAAGAAAGCAUCAGAAGGCACAUAGG (Eterna round: R96, puzzle: Exclusion 1)”, under setting [4], the “apparent KD of MS2 coat protein” value was found to be 0.131 µM.
As to “CCUAUGUGAGGAUAUCACUGGUCUGCUCACUAGAUGAUCAGUGAGAAGGCACAUGAGGAUCACCCAUGUCAGUG [Exclusion 4 - Mod Brourd Ex 4-3 - 53] (puzzle: Exclusion 4)”, the “apparent KD of MS2 coat protein” value under setting [2] is 0.0929 µM.
Turning to “CCUAUGUGAGGAUAUCACUGGUCUUCUUUUAUUUUUUACAGUGAGAAGGCACAUGAGGAUCACCCAUGUCGGUG [Ex4 - 3 - 49] (Eterna round: R96, puzzle: Exclusion 4)”, the “apparent KD of MS2 coat protein” value came to 0.0984 µM (input ligand: FMN 200 uM), 0.115 µM under setting [4] and 0.192 µM (input ligand: none).
Consider “CCUAUGUGAGGAUAUCACUGGUCUUCUUUUAUUUUUUACAGUGAGAAGGCACAUGAGGAUCACCCAUGUCGGUG [Ex4 - 3 - 49] (puzzle: Exclusion 4)”, for which the “apparent KD of MS2 coat protein” value under setting [2] is 0.151 µM.
“CCUAUGUGAGGAUAUCACUGGUCUUUUCAUUGGAUGAUUAGUGAGAAGGCACAUGAGGAUCACCCAUGUCGGUG [Ex4 - 3 - 52] (puzzle: Exclusion 4)”: under setting [2], the “apparent KD of MS2 coat protein” value was determined as 0.0346 µM.
Consider “CCUCCACAUGAGGAUCACCCAUGUGAGGAUAUCCUGCGAGGAUCAAAAGAUCCUCGUGGGAGAAGGCACAUGAA [Omei Ex1 A9] (Eterna round: R97, puzzle: Exclusion 1)”, for which the “apparent KD of MS2 coat protein” value reads like this: (input ligand: FMN 200 uM) 0.241 µM; (input ligand: none) 0.0393 µM.
Take “CCUCCGUAUAAGGAUAUCGUCCAGGAAACUGGACGAGAAGGUAUGACAUGAGGAUCACCCAUGUGAAAGUGAUG [Mod of Brourd 25 - Jieux - Exclusion 6] (Eterna round: R97, puzzle: Exclusion 6)”: the “apparent KD of MS2 coat protein” value reads like this: (input ligand: FMN 200 uM) 0.212 µM; (input ligand: none) 0.0714 µM.
“CCUCGACGGUAGGAUAUCGUCAAACUAUUGUGAUGAGAAGGACUGACAUGAGGAUCACCCAUGUUAACGUGAUA [Exclusion 6 - 7:b] (puzzle: Exclusion 6)”: the “apparent KD of MS2 coat protein” value under setting [2] is 0.0171 µM.
As for “CCUCGUUGGGAGGAUAUCCUUUAGAUUGGAGGAGGAGAAGGCUCGACAUGAGGAUCACCCAUGUAAAAUUUAAA [-18.7, -17.5 kcal, A 31%] (Eterna round: R97, puzzle: Exclusion 6)”, the “apparent KD of MS2 coat protein” value came to 0.274 µM (input ligand: FMN 200 uM) and 0.0733 µM (input ligand: none).
